Source: patent US12565680B2, “Cancer neoantigens and their utilities in cancer vaccines and TCR-based cancer immunotherapy” (THE METHODIST HOSPITAL SYSTEM, priority 2018, dated 2026)

Experiments:
[1] = test system: T-cell clones of 135TIL; experiment: IFN-γ ELISA with tumor-reactive T-cell clones of 135TIL; assay type: cell-based, human; details: peptide titration; 135-1C1 (ADIPOR2), 135-1E1 (LAGE1b)
Excerpt: Thus, immunogenic antigens can be generated from various sources or mechanisms [such as alternative ORFs, noncoding regions (3′ and 5′ UTRs, introns, noncoding RNA)]. […] All other tumor-reactive CD4^+ T-cell clones and CD8^+ T-cell clones recognized the mutation-derived neoantigens. […] To identify these two antigens recognized by these two CD4^+ T-cell clones, an Ii-fusion cDNA library derived from 135 mel tumor cells was constructed using experimental procedures. The Ii-fusion cDNA library pools (approximately 100 cDNA clones per pool) were transfected into 293IMDR3/DP4 or 293IMDR4/DP4 cells, followed by co-culturing with CD4^+ T-cell clones (135-1C1 or 135-1E1). After 2×10^5 cDNA clones, positive cDNA library pools that stimulate two T-cell clones, respectively, were identified based on IFN-γ release by ELISA (FIG. 6B). The positive pools were then transformed into Stbl3™ Escherichia coli, and single bacteria colonies were picked for plasmid DNA isolation. […] The 135-1E1 T cell-reactive cDNA clones encoded the product translated from an alternative reading frame of CTAG2 (LAGE1b) (FIG. 6C and FIG. 7A). […]
T-cell cloning and expansion were performed. […] On day 14, T-cell clones were harvested, counted, tested for tumor reactivity. […]

[2] = test system: 135TIL; experiment: IFN-γ ELISA with bulk 135TIL (IVT-RNA electroporated 135EBV-B cells; peptide titration and truncation); assay type: cell-based, human; details: serially diluted peptides
Method: Due to low transfection efficiency of EBV-B cells, in vitro transcribed (IVT) RNA of 24 TMGs were generated and then electroporated them into 135EBV-B cells, followed by adding 135TIL cells for antigen recognition based on cytokine release assay.
96-well tissue culture plates were coated with phosphate-buffered saline (PBS, GenDEPOT) containing 50 μg/ml poly-L-lysine (Millipore Sigma) at 37° C. 10 min later, the plates were rinsed twice with PBS. Tumor cells or 293-APCs were seeded at 5×10^4/well in the 96-well plate and cultured at 37° C., 5% CO2 for at least 4 h. For plasmid transfection, 250 ng of plasmid DNA were transfected into 293-APCs per well with 0.5 μl of Lipofectamine 2000 (Thermo Fisher Scientific) according to the manufacturer's instructions and incubated at 37° C., in 5% CO2 overnight. For peptide presentation, synthesized peptides (GeneScript) were added to each well at different final concentrations from 10^2 to 10^−4 μM and incubated at 37° C., 5% CO2. The cells transfected with plasmids or pulsed with peptides were washed with TCM twice, and then cocultured with T cells (1×10^5/well). […]
96-well microplate (Greiner Bio-one) was coated with 50 μl of PBS containing anti-human IFN-γ (Thermo Fisher Scientific, primary antibody, 1 μg/ml) per well and incubated at 4° C. overnight. […] The plate was read at OD450 nm. The concentration of IFN-γ was calculated by standard reading. […]

B1: … MEGAPAGPGGRTAACLSCTSRCLSRRPWKRSWSAGSCPGMPHRSPDQGRF (peptide)
chain: EALAFLMAQGAMLAAQERRVPRAAEVPGAQGQQGPRGREEAPRGVRMAVPLLRRMEGAPAGPGGRTAACLSCTSRCLSRRPWKRSWSAGSCPGMPHRSPDQGRF
notes: 109 aa peptide from frame-shifted reading frame (ORF2) of CTAG2 (LAGE1b)
In the case of B1, the “recognition of antigen peptides by specific T-cell clones” value [1] is reported as “strongly recognized” and the “recognition of titrated peptides by 135TIL (IFN-γ ELISA)” value [2] is reported as “little or no activity”.
